Molecular target: PwNAC11-cYFP fusion protein (Picea wilsonii)

B1: ABF3 in pSPYNE (BiFC fusion) (natural protein)
chain: MGSRLNFKSFVDGVSEQQPTVGTSLPLTRQNSVFSLTFDEFQNSWGGGIGKDFGSMNMDELLKNIWTAEESHSMMGNNTSYTNISNGNSGNTVINGGGNNIGGLAVGVGGESGGFFTGGSLQRQGSLTLPRTISQKRVDDVWKELMKEDDIGNGVVNGGTSGIPQRQQTLGEMTLEEFLVRAGVVREEPQPVESVTNFNGGFYGFGSNGGLGTASNGFVANQPQDLSGNGVAVRQDLLTAQTQPLQMQQPQMVQQPQMVQQPQQLIQTQERPFPKQTTIAFSNTVDVVNRSQPATQCQEVKPSILGIHNHPMNNNLLQAVDFKTGVTVAAVSPGSQMSPDLTPKSALDASLSPVPYMFGRVRKTGAVLEKVIERRQKRMIKNRESAARSRARKQAYTMELEAEIAQLKELNEELQKKQVEIMEKQKNQLLEPLRQPWGMGCKRQCLRRTLTGPW
dual-luciferase assay in tobacco: activation of the ERD1 promoter reporter on simultaneous expression of PwNAC11 and ABF3, against the control group (PwNAC11 alone 2.67-fold over empty vector): 3.04 fold

— paper PMC8269012
